Key:
[1] = confocal colocalisation with ER stain CytoPainter; conditions: glycan lost; control: WT SNAP-α1D
[2] = sucrose density gradient fractionation, PAGE NIR; conditions: glycan lost; control: WT SNAP-α1D
[3] = cell-impermeable SNAP substrate BG-782 surface labelling; conditions: glycan lost; control: WT SNAP-α1D
[4] = PAGE NIR of SNAP-labelled HEK293 lysate; conditions: glycan lost; control: WT SNAP-α1D
[5] = SNAP-Capture pull-down, MS/MS peptide coverage; conditions: glycan lost; control: WT SNAP-α1D
[6] = PAGE NIR after 16 hr tunicamycin; conditions: glycan lost; control: EtOH vehicle
[7] = dual SNAP/CLIP tag PAGE NIR; conditions: glycan lost; control: S-WT-C

| Protein | localisation_or_trafficking, other: % total AUC in low-density (ER) peak [2] | localisation_or_trafficking, other: % change from SNAP alone [3] | other: full-length receptor biogenesis [4] | also measured |
| --- | --- | --- | --- | --- |
| α1D-adrenergic receptor (α1D-AR): N65Q (protein) parent chain: MTFRDLLSVSFEGPRPDSSAGGSSAGGGGGSAGGAAPSEGPAVGGVPGGAGGGGGVVGAGSGEDNRSSAGEPGSAGAGGDVNGTAAVGGLVVSAQGVGVGVFLAAFILMAVAGNLLVILSVACNRHLQTVTNYFIVNLAVADLLLSATVLPFSATMEVLGFWAFGRAFCDVWAAVDVLCCTASILSLCTISVDRYVGVRHSLKYPAIMTERKAAAILALLWVVALVVSVGPLLGWKEPVPPDERFCGITEEAGYAVFSSVCSFYLPMAVIVVMYCRVYVVARSTTRSLEAGVKRERGKASEVVLRIHCRGAATGADGAHGMRSAKGHTFRSSLSVRLLKFSREKKAAKTLAIVVGVFVLCWFPFFFVLPLGSLFPQLKPSEGVFKVIFWLGYFNSCVNPLIYPCSSREFKRAFLRLLRCQCRRRRRRRPLWRVYGHHWRASTSGLRQDCAPSSGDAPPGAPLALTALPDPDPEPPGTPEMQAPVASRRKPPSAFREWRLLGPFRRPTTQLRAKVSSLSHKIRAGGAQRAEAACAQRSEVEAVSLGVPHEVAEGATCQAYELADYSNLRETDI | changes, 46.33 vs 92.47 | decreases, 13.40 ± 4.65 vs 46.13 ± 5.61 | no change | localisation_or_trafficking, other: Pearson's coefficient [1]: no change, 0.70 ± 0.04 vs 0.72 ± 0.03 |
| α1D-adrenergic receptor (α1D-AR): N82Q (protein) parent chain: MTFRDLLSVSFEGPRPDSSAGGSSAGGGGGSAGGAAPSEGPAVGGVPGGAGGGGGVVGAGSGEDNRSSAGEPGSAGAGGDVNGTAAVGGLVVSAQGVGVGVFLAAFILMAVAGNLLVILSVACNRHLQTVTNYFIVNLAVADLLLSATVLPFSATMEVLGFWAFGRAFCDVWAAVDVLCCTASILSLCTISVDRYVGVRHSLKYPAIMTERKAAAILALLWVVALVVSVGPLLGWKEPVPPDERFCGITEEAGYAVFSSVCSFYLPMAVIVVMYCRVYVVARSTTRSLEAGVKRERGKASEVVLRIHCRGAATGADGAHGMRSAKGHTFRSSLSVRLLKFSREKKAAKTLAIVVGVFVLCWFPFFFVLPLGSLFPQLKPSEGVFKVIFWLGYFNSCVNPLIYPCSSREFKRAFLRLLRCQCRRRRRRRPLWRVYGHHWRASTSGLRQDCAPSSGDAPPGAPLALTALPDPDPEPPGTPEMQAPVASRRKPPSAFREWRLLGPFRRPTTQLRAKVSSLSHKIRAGGAQRAEAACAQRSEVEAVSLGVPHEVAEGATCQAYELADYSNLRETDI | no change, 89.13 vs 92.47 | decreases, 9.49 ± 5.95 vs 46.13 ± 5.61 | no change | – |
| α1D-adrenergic receptor (α1D-AR): NQQ (protein) parent chain: MTFRDLLSVSFEGPRPDSSAGGSSAGGGGGSAGGAAPSEGPAVGGVPGGAGGGGGVVGAGSGEDNRSSAGEPGSAGAGGDVNGTAAVGGLVVSAQGVGVGVFLAAFILMAVAGNLLVILSVACNRHLQTVTNYFIVNLAVADLLLSATVLPFSATMEVLGFWAFGRAFCDVWAAVDVLCCTASILSLCTISVDRYVGVRHSLKYPAIMTERKAAAILALLWVVALVVSVGPLLGWKEPVPPDERFCGITEEAGYAVFSSVCSFYLPMAVIVVMYCRVYVVARSTTRSLEAGVKRERGKASEVVLRIHCRGAATGADGAHGMRSAKGHTFRSSLSVRLLKFSREKKAAKTLAIVVGVFVLCWFPFFFVLPLGSLFPQLKPSEGVFKVIFWLGYFNSCVNPLIYPCSSREFKRAFLRLLRCQCRRRRRRRPLWRVYGHHWRASTSGLRQDCAPSSGDAPPGAPLALTALPDPDPEPPGTPEMQAPVASRRKPPSAFREWRLLGPFRRPTTQLRAKVSSLSHKIRAGGAQRAEAACAQRSEVEAVSLGVPHEVAEGATCQAYELADYSNLRETDI | – | – | abolishes, primarily expressed as a single, robust band of ~43 kDa in size | other: full-length receptor biogenesis [5]: abolishes |
| α1D-adrenergic receptor (α1D-AR): tunicamycin 5 μg/mL (protein) parent chain: MTFRDLLSVSFEGPRPDSSAGGSSAGGGGGSAGGAAPSEGPAVGGVPGGAGGGGGVVGAGSGEDNRSSAGEPGSAGAGGDVNGTAAVGGLVVSAQGVGVGVFLAAFILMAVAGNLLVILSVACNRHLQTVTNYFIVNLAVADLLLSATVLPFSATMEVLGFWAFGRAFCDVWAAVDVLCCTASILSLCTISVDRYVGVRHSLKYPAIMTERKAAAILALLWVVALVVSVGPLLGWKEPVPPDERFCGITEEAGYAVFSSVCSFYLPMAVIVVMYCRVYVVARSTTRSLEAGVKRERGKASEVVLRIHCRGAATGADGAHGMRSAKGHTFRSSLSVRLLKFSREKKAAKTLAIVVGVFVLCWFPFFFVLPLGSLFPQLKPSEGVFKVIFWLGYFNSCVNPLIYPCSSREFKRAFLRLLRCQCRRRRRRRPLWRVYGHHWRASTSGLRQDCAPSSGDAPPGAPLALTALPDPDPEPPGTPEMQAPVASRRKPPSAFREWRLLGPFRRPTTQLRAKVSSLSHKIRAGGAQRAEAACAQRSEVEAVSLGVPHEVAEGATCQAYELADYSNLRETDI | – | – | – | other: full-length receptor biogenesis [6]: changes |
| α1D-adrenergic receptor (α1D-AR): S-NQQ-C (protein) parent chain: MTFRDLLSVSFEGPRPDSSAGGSSAGGGGGSAGGAAPSEGPAVGGVPGGAGGGGGVVGAGSGEDNRSSAGEPGSAGAGGDVNGTAAVGGLVVSAQGVGVGVFLAAFILMAVAGNLLVILSVACNRHLQTVTNYFIVNLAVADLLLSATVLPFSATMEVLGFWAFGRAFCDVWAAVDVLCCTASILSLCTISVDRYVGVRHSLKYPAIMTERKAAAILALLWVVALVVSVGPLLGWKEPVPPDERFCGITEEAGYAVFSSVCSFYLPMAVIVVMYCRVYVVARSTTRSLEAGVKRERGKASEVVLRIHCRGAATGADGAHGMRSAKGHTFRSSLSVRLLKFSREKKAAKTLAIVVGVFVLCWFPFFFVLPLGSLFPQLKPSEGVFKVIFWLGYFNSCVNPLIYPCSSREFKRAFLRLLRCQCRRRRRRRPLWRVYGHHWRASTSGLRQDCAPSSGDAPPGAPLALTALPDPDPEPPGTPEMQAPVASRRKPPSAFREWRLLGPFRRPTTQLRAKVSSLSHKIRAGGAQRAEAACAQRSEVEAVSLGVPHEVAEGATCQAYELADYSNLRETDI | – | – | – | other: full-length receptor biogenesis [7]: abolishes |
